The results in this text go back to US20220306744A1.

For orientation: Kd means the constant that tells how readily two partners part at equilibrium. A word on the koff: it is a measure of how fast the partners let go of each other. By kon is commonly meant the second-order rate constant of association. As a reminder, the EC50 is the concentration needed to bring the measured effect to its halfway point. In general, IC50 refers to the midpoint of a concentration-inhibition curve. Low readings indicate greater potency in that assay, high ones weaker potency in that assay.

The target of experiment [1] is human PD-1 expressed on cells (CHO TREX human PD1 cell line, full-length human PD-1 sequence) (human) (UniProt Q15116). In words: cell-based or functional assay.
human PD-1 expressed on cells (CHO TREX human PD1 cell line, full-length human PD-1 sequence) (human), sequence (Q15116 21-288): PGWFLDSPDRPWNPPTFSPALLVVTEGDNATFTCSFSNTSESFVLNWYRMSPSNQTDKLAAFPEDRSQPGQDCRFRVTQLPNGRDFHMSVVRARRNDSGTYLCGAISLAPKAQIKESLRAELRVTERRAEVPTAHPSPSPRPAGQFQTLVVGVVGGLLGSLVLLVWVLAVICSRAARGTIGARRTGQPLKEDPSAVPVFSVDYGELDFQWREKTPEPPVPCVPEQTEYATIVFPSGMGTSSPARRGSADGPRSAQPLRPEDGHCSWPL
Experiment [2] addresses recombinant human PD-1 Fc chimera (human) (UniProt Q15116). In words: SPR Biacore T200, single cycle kinetics, human Fc tagged PD-1 captured on Protein G, 1:1 model. On the technique in general: SPR reads the build-up and loss of mass on a sensor chip optically.
Experiment [3] addresses cynomolgus PD-1 recombinant protein (Acro Biosystems cat no. PD-1-C5254) (cynomolgus). In words: HTRF binding assay, 2 nM recombinant PD1, anti His-D2 and anti human-Fc cryptate. (TR-FRET usually uses a lanthanide donor and a delayed reading to cut background.)
Experiment [4] addresses recombinant human PD-1 Fc chimera (human) (UniProt Q15116). Described as above.
In experiment [5] the target is human PD-1 expressed on cells (CHO TREX human PD1 cell line, full-length human PD-1 sequence) (human) (UniProt Q15116). The experiment can be described thus: FMAT: inhibition of human Fc tagged human PD-L1 (400 pM) binding to CHO human PD-1 cells.
Experiment [6] addresses Strep tagged recombinant human PD-1 (human) (UniProt Q15116). The experiment can be described thus: SPR Biacore T200, single cycle kinetics, Strep tagged human PD-1 amine coupled, 1:1 model.
Experiment [7] has as its target recombinant human PD-1 Fc chimera (human) (UniProt Q15116). In words: SPR Biacore T200, single cycle kinetics, human Fc tagged PD-1 captured on Protein G, 1:1 model; second line of values in the continuation row of the name.

Strep tagged recombinant human PD-1 (human), sequence (Q15116 25-167 limits assumed): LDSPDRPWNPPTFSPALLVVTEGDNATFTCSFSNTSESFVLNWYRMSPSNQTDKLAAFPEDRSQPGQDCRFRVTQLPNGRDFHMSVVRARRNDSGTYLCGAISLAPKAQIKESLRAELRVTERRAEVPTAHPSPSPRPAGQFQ
recombinant human PD-1 Fc chimera (human), sequence (Q15116 25-167 limits assumed, stated change not applied): as the sequence (Q15116 25-167 limits assumed) above

B1: 1.92b-4GS-1.39a-4GS-MSA binder (protein, part only; not given: mouse serum albumin binder, part only)
chain, part: EVQLVESGGGLVKPGGSLRLSCAASGFTFSDESMTWMRQAPGKGLEWVSYISSGGGVKFYADSVKGRFTISRDNAKNSLYLQMNSLRAEDTAVYYCAREAPLRLGESPHDAFDISGQGTMVTVSSGGGGSGGGGSGGGGSGGGGSEVQLVESGGGLVQPGRSLRLSCAASGFTFDDYALHWVRQAPGKDLEWVSGISWNGGSYGYADSVKGRFTISRDNAKNSLYLQMNSLRAEDTALYYCVREKGPGLTGSTADYYGLDAWGQGTMVTVSSGGGGSGGGGSGGGGSGGGGS
For B1, the EC50 (M), NFAT-Luciferase reporter gene assay in experiment [1] was 4.7e-09 M.

B2: 1.57b-4GS-MSA binder-4GS-1.1a (protein, part only; not given: Middle albumin binder and linkers, not shown: another chain or arm of the molecule; large carriers; small tags and cut ends)
VH 1: QVQLVESGGGLVKPGGSLRLSCAASGFTFSDNSMTWMRQAPGKGLEWVSYISSGGGVIFYADSVKGRFTISRDNAKNSLYLQMNSLRADDTAVYYCAREAPLRLGESPHDAFDISGQGTMVTVSS
VH 2: EVQLLESGGGSVQPGRSLRLSCAASGFTFDDHAMHWVRQAPGKGLEWVSGISWNSGSMGYADSVKDRFTISRDNAKSSLYLQMNSLRAEDTALYYCVREKGPGLTGSTADYYGLDVWGQGTMVTVSS
modifications: In the real molecule both VH are parts of one polypeptide: 1.57b, 4GS (SEQ ID NO 1105), MSA binder VH, 4GS (SEQ ID NO 1105), 1.1a. They are given here as two separate chains because the middle domain has no letters.
Molecule B2 showed an EC50 (M), NFAT-Luciferase reporter gene assay in experiment [1] of 3.2e-09 M. For the same molecule, in experiment [2], the Kd came to 8.06 pM, the koff stood at 4.23e-06 s⁻¹ and the kon came out at 524000 M⁻¹ s⁻¹.

B3: 1.57b-4GS-1.1a-4GS-MSA binder (protein, part only; not given: Albumin binder, second linker, His tag, not shown: another chain or arm of the molecule; large carriers; small tags and cut ends)
chain: QVQLVESGGGLVKPGGSLRLSCAASGFTFSDNSMTWMRQAPGKGLEWVSYISSGGGVIFYADSVKGRFTISRDNAKNSLYLQMNSLRADDTAVYYCAREAPLRLGESPHDAFDISGQGTMVTVSSGGGGSGGGGSGGGGSGGGGSEVQLLESGGGSVQPGRSLRLSCAASGFTFDDHAMHWVRQAPGKGLEWVSGISWNSGSMGYADSVKDRFTISRDNAKSSLYLQMNSLRAEDTALYYCVREKGPGLTGSTADYYGLDVWGQGTMVTVSS
The molecule B3 displayed an EC50 (M), NFAT-Luciferase reporter gene assay in experiment [1] of 2.5e-09 M. Besides, the EC50 in experiment [3] is 1.6 nM; in experiment [4], 1 nM. In experiment [5], this molecule yielded an IC50 of 4.4 nM. Moreover, the Kd in experiment [6] amounted to 0.134 nM; in experiment [2], 0.0517 pM; in experiment [7], 0.0166 pM. Besides, the koff is 4.68e-05 s⁻¹ in experiment [6], 2.67e-08 s⁻¹ in experiment [2] and 1.32e-08 s⁻¹ in experiment [7]. Also, the kon turned out to be 349000 M⁻¹ s⁻¹ in experiment [6], 516000 M⁻¹ s⁻¹ in experiment [2] and 793000 M⁻¹ s⁻¹ in experiment [7].
